# Laboratory results as given in US20250197490A1 (HBM ALPHA THERAPEUTICS, published 2025).
# T1: biotinylated CRH (human and mouse, UniProt P01143 145-185 (rat entry), not fully specified; biotin; which end is not stated for the result (NT-biotin and CT-biotin forms were used))
# T1 construct: also called biotin-CRH; CRH (NT biotin)
# T1 peptide: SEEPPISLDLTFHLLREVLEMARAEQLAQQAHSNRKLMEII
# T2: CRH (C-Terminal Region, NT Biotin) (N-terminal Biotin-K; C-terminal NH2)
# T2 construct: central region plus C-terminal region of CRH; also called C-Terminal CRH; C-Ter-CRH
# T2 peptide: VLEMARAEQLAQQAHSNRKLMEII
# T3: human UCN3 peptide, biotinylated (human, UniProt Q969E3 120-157, biotin at N- or C-terminus)
# T3 construct: also called hUCN3 (NT Biotin); hUCN3 (CT Biotin)
# T3 peptide (looked up): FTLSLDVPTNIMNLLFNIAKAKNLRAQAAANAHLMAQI
# T4: human UCN1 peptide, biotinylated (human, UniProt P55089 83-122, biotin at N- or C-terminus)
# T4 construct: also called hUCN1 (NT Biotin); hUCN1 (CT Biotin)
# T4 peptide (looked up): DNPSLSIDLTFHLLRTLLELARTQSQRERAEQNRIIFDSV
# T5: corticotropin-releasing hormone (CRH) peptide (human and mouse, UniProt P01143 145-185 (rat entry), not fully specified)
# T5 peptide: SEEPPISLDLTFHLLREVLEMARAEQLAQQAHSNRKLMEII
# T6: CRH (Central Region, CT Biotin) (C-terminal K-Biotin)
# T6 construct: also called Central CRH
# T6 peptide: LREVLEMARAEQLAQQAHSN
# T7: human UCN2 peptide, biotinylated (human, UniProt Q96RP3 72-109, limits assumed, biotin at N- or C-terminus)
# T7 construct: also called hUCN2 (NT Biotin); hUCN2 (CT Biotin)
# T7 peptide (looked up): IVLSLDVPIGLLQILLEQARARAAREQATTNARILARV
# T8: CRH (Central Region, NT Biotin) (N-terminal Biotin-K; C-terminal NH2)
# T8 construct: also called Central CRH
# T8 peptide: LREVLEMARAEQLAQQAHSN
# T9: N-Terminal CRH peptide (N-terminal region plus central region, CT biotin) (human and mouse, C-terminal K-Biotin)
# T9 construct: also called N-Ter-CRH
# T9 peptide: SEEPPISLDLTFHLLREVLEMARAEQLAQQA
# Columns and labels:
# biotinylated CRH [1] = biological target: T1, biotinylated CRH; assay: ELISA, CRH (NT biotin)
# Outline: (§1)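 Plates were coated overnight at 4° C with streptavidin at 2 μg/ml in PBS to capture the biotinylated peptide. Bound antibody was detected with HRP-conjugated goat anti-human IgG (H+L), 1 hour at 37° C, then TMB for 15 minutes at room temperature; OD450 nm was read after stopping.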
# [2] = biological target: T2, CRH (C-Terminal Region, NT Biotin); assay: ELISA, CRH C-terminal region peptide (NT biotin)
# Outline: as §1
# [3] = biological target: T3, human UCN3 peptide, biotinylated; assay: ELISA, hUCN3 (NT biotin) and (CT biotin)
# biotinylated CRH [4] = biological target: T1, biotinylated CRH; assay: ELISA, CRH (CT biotin)
# Outline: as §1
# [5] = biological target: T4, human UCN1 peptide, biotinylated; assay: ELISA, hUCN1 (NT biotin) and (CT biotin)
# Protocol: Streptavidin (Thermo, Cat: 21125) was diluted in PBS with a concentration of 2 μg/mL. 100 μL of diluted streptavidin was added per well to ELISA microplates, and the plates were incubated overnight at 4° C. Plates were blocked with ELISA blocking solution (containing 2% w/v BSA, 0.05% (v/v) Tween-20, pH 7.4 PBS buffer) at 37° C. for 1 hour, and then incubated with either 1 μg/mL hUCN1 (NT Biotin), hUCN1 (CT Biotin), hUCN2 (NT Biotin), hUCN2 (CT Biotin), hUCN3 (NT Biotin), or hUCN3 (CT Biotin) for 1 hour at 37° C. […] Plates were subsequently washed and incubated with HRP-conjugated goat anti-human IgG (H+L) antibody (Jackson, Cat: 109-035-088) at 37° C. for 1 hour. 100 μl of TMB Substrate (Biopanda, Cat: TMB-S-003) was added, and the plates were incubated at room temperature for 15 minutes. 100 μL of ELISA stopping solution (Solarbio, Cat #: C1058) was then added to terminate the reaction, and the OD450 nm was determined by an ELISA plate reader (Molecular Devices, Spectra max 384 plus).
# [6] = biological target: T5, corticotropin-releasing hormone (CRH) …; assay: cell-based or functional assay
# [7] = biological target: T6, CRH (Central Region, CT Biotin); assay: ELISA, CRH central region peptide (CT biotin)
# Outline: as §1
# [8] = biological target: T7, human UCN2 peptide, biotinylated; assay: ELISA, hUCN2 (NT biotin) and (CT biotin)
# [9] = biological target: T8, CRH (Central Region, NT Biotin); assay: ELISA, CRH central region peptide (NT biotin)
# Outline: as §1
# [10] = biological target: T9, N-Terminal CRH peptide (N-terminal …); assay: ELISA, N-Ter-CRH (CT-biotin) on streptavidin
# Outline: as §1
binder,measurement,setting,value
"PR302334-26 (antibody, human IgG1, kappa, V domains shown) VH: EVQLVESGGGLVQPGGSLRLSCAASGFTFSTYAMSWVRQAPGKGLEWVASIRSGGTTYYPDSVKGRFTISRDNSKNSLYLQMNSLRAEDTAVYYCTRGIDWGQGTTVTVSS VL: DIVMTQSPDSLAVSLGERATINCKASQSVNNDVAWYQQKPGQPPRLLIYYASNRYTGVPDRFSGSGSGTDFTLTISSLQAEDLAVYFCQQDYSSWTFGGGTKVEIKR",EC50 (read off the curve),biotinylated CRH [1],~0.03 nM
same,binding result,[2],no binding (tested: 100 nM)
same,binding result,[3],no binding (tested: 100 nM)
same,EC50 (read off the curve),biotinylated CRH [4],~0.03 nM
same,binding result,[5],no binding (tested: 100 nM)
same,hCRHR1-Luc 0.5 nM CRH IC50,[6],1.1 nM
same,binding result,[7],no binding (tested: 100 nM)
same,binding result,[8],no binding (tested: 100 nM)
same,binding result,[9],no binding (tested: 100 nM)
same,EC50,[10],0.029 nM
